Key:
human CD73 V144K + N185G = biological target: T1, human CD73 V144K + N185G (human, UniProt P21589 27-553); assay: SPR ProteOn, CD73 variant on HTG chip
T1 chain: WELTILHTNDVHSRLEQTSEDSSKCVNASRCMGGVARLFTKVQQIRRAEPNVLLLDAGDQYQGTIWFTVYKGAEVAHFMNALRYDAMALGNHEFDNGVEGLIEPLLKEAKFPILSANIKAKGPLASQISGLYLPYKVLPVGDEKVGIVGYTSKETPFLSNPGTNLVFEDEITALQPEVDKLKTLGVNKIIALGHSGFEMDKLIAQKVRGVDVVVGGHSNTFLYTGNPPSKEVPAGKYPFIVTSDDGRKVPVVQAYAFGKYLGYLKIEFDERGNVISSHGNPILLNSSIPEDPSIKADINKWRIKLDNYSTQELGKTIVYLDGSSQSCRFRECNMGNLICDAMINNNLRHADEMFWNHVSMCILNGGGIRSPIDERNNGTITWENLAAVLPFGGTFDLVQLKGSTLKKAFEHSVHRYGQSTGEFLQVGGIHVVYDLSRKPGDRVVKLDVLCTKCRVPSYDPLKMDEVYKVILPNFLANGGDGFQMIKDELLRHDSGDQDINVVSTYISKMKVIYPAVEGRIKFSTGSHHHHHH

CD73 chimera KO_Nterm = biological target: T2, CD73 chimera KO_Nterm (chicken (Gallus gallus); human); assay: SPR ProteOn, CD73 variant on HTG chip
T2 construct: Human limits converted from mature numbering (+26); also called N-terminal domain-swapped CD73
T2 chain: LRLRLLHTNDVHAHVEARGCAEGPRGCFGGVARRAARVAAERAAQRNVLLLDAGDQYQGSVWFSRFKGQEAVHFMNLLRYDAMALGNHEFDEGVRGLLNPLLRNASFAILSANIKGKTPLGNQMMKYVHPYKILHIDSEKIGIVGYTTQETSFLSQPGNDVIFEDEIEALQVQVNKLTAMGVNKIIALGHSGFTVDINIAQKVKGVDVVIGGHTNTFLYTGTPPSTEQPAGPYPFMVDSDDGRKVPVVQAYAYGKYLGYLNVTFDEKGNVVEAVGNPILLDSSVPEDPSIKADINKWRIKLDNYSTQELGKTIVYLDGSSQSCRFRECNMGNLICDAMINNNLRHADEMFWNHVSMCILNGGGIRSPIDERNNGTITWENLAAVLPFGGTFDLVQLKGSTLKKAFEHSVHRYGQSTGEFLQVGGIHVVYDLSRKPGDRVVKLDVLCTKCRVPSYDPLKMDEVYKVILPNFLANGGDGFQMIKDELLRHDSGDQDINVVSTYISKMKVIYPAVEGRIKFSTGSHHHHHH

B1: MEDI9447 (antibody, V domains shown)
VH: EVQLLESGGGLVQPGGSLRLSCAASGFTFSSYAYSWVRQAPGKGLEWVSAISGSGGRTYYADSVKGRFTISRDNSKNTLYLQMNSLRAEDTAVYYCARLGYGRVDEWGRGTLVTVSS
VL: QSVLTQPPSASGTPGQRVTISCSGSLSNIGRNPVNWYQQLPGTAPKLLIYLDNLRLSGVPDRFSGSKSGTSASLAISGLQSEDEADYYCATWDDSHPGWTFGGGTKLTVL
notes: also called clone 10.3 antibody; 73combo3
binding result (human CD73 V144K + N185G): no binding
binding result (CD73 chimera KO_Nterm): no binding (tested: 5 nM to 0.3 nM)

From US20160194407A1 (AstraZeneca / MedImmune, published 2016)
